The target in this assay is mouse LSR (lipolysis stimulated receptor) (mouse) (UniProt Q99KG5). The assay is described as follows: cell-based or functional assay.
UniProt Q99KG5, sequence (Q99KG5 36-594): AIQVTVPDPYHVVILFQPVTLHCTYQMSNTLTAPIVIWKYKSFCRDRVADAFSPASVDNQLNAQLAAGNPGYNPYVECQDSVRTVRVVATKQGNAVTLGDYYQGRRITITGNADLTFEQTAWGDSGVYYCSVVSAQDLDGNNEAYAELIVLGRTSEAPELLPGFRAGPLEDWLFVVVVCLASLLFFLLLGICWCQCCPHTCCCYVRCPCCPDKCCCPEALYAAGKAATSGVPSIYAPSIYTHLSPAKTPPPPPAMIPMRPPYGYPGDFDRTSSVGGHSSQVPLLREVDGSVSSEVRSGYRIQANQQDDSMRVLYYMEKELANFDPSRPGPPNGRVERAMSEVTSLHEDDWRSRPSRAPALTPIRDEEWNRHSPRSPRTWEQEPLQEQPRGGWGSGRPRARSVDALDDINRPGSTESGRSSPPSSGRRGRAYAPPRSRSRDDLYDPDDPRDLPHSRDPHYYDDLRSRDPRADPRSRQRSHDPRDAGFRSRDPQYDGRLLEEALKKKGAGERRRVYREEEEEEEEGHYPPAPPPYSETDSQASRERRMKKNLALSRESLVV

Consider “125I-mouse leptin (from UniProt P41160 22-167) (ligand)”, for which the cell-associated 125I-leptin in BPRCL mouse liver cells after pre-incubation with increasing AdipoQ (AQ) or globular AdipoQ (AQ-GH) is > 30%.

For the origin of these results see US20050288223A1.
